Results taken from patent publication US20250171379A1 (Janssen / Centocor, published 2025).

How the values were obtained:
[1] = target: T1, human prostate-specific membrane antigen (PSMA) (human, UniProt Q04609 1-750); test: flow cytometry on C4-2B cells (PSMA+), AlexaFluor647 anti-human IgG secondary, MFI curve fit; parental in the MTG series
T1 construct: whole, on cells; also called PSMA+ C4-2B cells
Protocol: (§1) Cell binding of azide-modified antibodies, DOTA-DBCO-azide modified antibodies, and DFO-DBCO-azide modified antibodies was compared to the parental mAbs for the conjugates described in Table 1. Cell lines expressing the mAb target were treated with antibody or conjugate in a range of a concentrations, and binding was measured by flow cytometry. […] Anti-PSMA mAb was evaluated for binding to PSMA+C4-2b cells.
(§2) Flow Cytometry: Cells were detached from flask using enzyme free cell dissociation buffer (Gibco, Waltham, MA) and strained through a 40 μm filter (Falcon). 5×10⁴ cells were seeded per well in a 96-well u-bottom plate. Cells were incubated with conjugated antibody or parental antibody diluted in BSA stain buffer (BD Bioscience, San Jose, CA) for 1 hr at 4° C. Cells were washed twice with stain buffer. […] Cells were washed twice with stain buffer then resuspended in a final volume of 25 μL/well in stain buffer and read on the iQue® Screener flow cytometer (Intellicyt®). […] Live cells were determined by excluding events with high nucleic acid stain. Mean fluorescence intensity (MFI) was determined on live cells and graphed in GraphPad® Prism 7 (GraphPad® Software) as log of antibody concentration vs. MFI. A non-linear regression curve fit was added to data and EC₅₀ values were calculated.

[2] = target: T1, human prostate-specific membrane …; test: flow cytometry on C4-2B cells (PSMA+), AlexaFluor647 anti-human IgG secondary, MFI curve fit; parental in the glycan series
Protocol: as §1, §2

[3] = target: T1, human prostate-specific membrane …; test: flow cytometry on C4-2B cells (PSMA+), AlexaFluor647 anti-human IgG secondary, MFI curve fit; parental in the random azide series
Protocol: as §1, §2

[4] = target: T1, human prostate-specific membrane …; test: flow cytometry on C4-2B cells (PSMA+), AlexaFluor647 anti-human IgG secondary, MFI curve fit
Protocol: as §1
Flow Cytometry: Cells were detached from flask using enzyme free cell dissociation buffer (Gibco, Waltham, MA) and strained through a 40 μm filter (Falcon). 5×10⁴ cells were seeded per well in a 96-well u-bottom plate. Cells were incubated with conjugated antibody or parental antibody diluted in BSA stain buffer (BD Bioscience, San Jose, CA) for 1 hr at 4° C. Cells were washed twice with stain buffer. Cells were then incubated in the dark for 30 min at 4° C. with AlexaFluor647 tagged anti-human IgG secondary antibody (Jackson ImmunoResearch Laboratories). Secondary antibodies were diluted 1:200 in stain buffer containing 3% donkey serum (Rockland Immunochemicals). For the last 10 minutes of the incubation SYTOX® Green Nucleic Acid Stain (ThermoFisher) was added to cells at a final concentration of 30 nM. Cells were washed twice with stain buffer then resuspended in a final volume of 25 μL/well in stain buffer and read on the iQue® Screener flow cytometer (Intellicyt®). ForeCyt® software was used to analyze data. Live cells were determined by excluding events with high nucleic acid stain. Mean fluorescence intensity (MFI) was determined on live cells and graphed in GraphPad® Prism 7 (GraphPad® Software) as log of antibody concentration vs. MFI. A non-linear regression curve fit was added to data and EC₅₀ values were calculated.

T1 sequence (Q04609 whole entry): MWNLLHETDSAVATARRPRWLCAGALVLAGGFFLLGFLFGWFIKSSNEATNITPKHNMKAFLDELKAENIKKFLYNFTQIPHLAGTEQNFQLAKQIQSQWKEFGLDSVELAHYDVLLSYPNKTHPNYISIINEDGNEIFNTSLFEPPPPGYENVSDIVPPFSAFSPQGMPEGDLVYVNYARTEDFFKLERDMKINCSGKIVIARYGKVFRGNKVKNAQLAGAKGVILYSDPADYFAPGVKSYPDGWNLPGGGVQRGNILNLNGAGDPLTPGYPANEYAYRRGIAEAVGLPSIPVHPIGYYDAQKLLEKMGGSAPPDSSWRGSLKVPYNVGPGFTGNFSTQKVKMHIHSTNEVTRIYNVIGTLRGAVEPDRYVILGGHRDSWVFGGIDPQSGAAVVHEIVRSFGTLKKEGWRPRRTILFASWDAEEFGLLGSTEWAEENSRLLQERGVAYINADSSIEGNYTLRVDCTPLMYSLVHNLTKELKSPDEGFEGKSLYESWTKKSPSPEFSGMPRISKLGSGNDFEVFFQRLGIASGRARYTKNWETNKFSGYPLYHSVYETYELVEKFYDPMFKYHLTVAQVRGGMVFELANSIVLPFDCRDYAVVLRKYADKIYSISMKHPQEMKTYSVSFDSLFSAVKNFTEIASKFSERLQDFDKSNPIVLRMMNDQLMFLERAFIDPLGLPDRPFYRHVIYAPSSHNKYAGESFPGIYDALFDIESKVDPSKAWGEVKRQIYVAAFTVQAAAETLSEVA

| Binder | EC50 [4] | other results |
| --- | --- | --- |
| anti-PSMA mAb PSMB127 (antibody, human IgG4 S228P, kappa, F234A L235A, V domains shown, Parental, unmodified human IgG4 antibody) VH: EVQLLESGGGLVQPGGSLRLSCAASGFTFKSDAMHWVRQAPGKGLEWVSEISGSGGYTNYADSVKGRFTISRDNSKNTLYLQMNSLRAEDTAVYYCARDSYDSSLYVGDYFDYWGQGTLVTVSS VL: EIVLTQSPATLSLSPGERATLSCRASQSVSSYLAWYQQKPGQAPRLLIYDASNRATGIPARFSGSGSGTDFTLTISSLEPEDFAVYYCQQRSNWPLTFGQGTKVEIKR |  | EC50 [1]: 4.1 nM; EC50 [2]: 0.7 nM; EC50 [3]: 5.5 nM |
| anti-PSMA mAb-azide (site specific MTG) (antibody, human IgG4 S228P, kappa, F234A L235A, V domains shown, deglycosylated with PNGase F; 3-azido propylamine at Gln295 by microbial transglutaminase; CAR 2, Human IgG4; also called anti-PSMA mAb (MTG) mAb-azide) VH: EVQLLESGGGLVQPGGSLRLSCAASGFTFKSDAMHWVRQAPGKGLEWVSEISGSGGYTNYADSVKGRFTISRDNSKNTLYLQMNSLRAEDTAVYYCARDSYDSSLYVGDYFDYWGQGTLVTVSS VL: EIVLTQSPATLSLSPGERATLSCRASQSVSSYLAWYQQKPGQAPRLLIYDASNRATGIPARFSGSGSGTDFTLTISSLEPEDFAVYYCQQRSNWPLTFGQGTKVEIKR | 5 nM |  |
| anti-PSMA mAb-DOTA (site specific MTG azide clicked with DOTA-GA-DBCO) (antibody, human IgG4 S228P, kappa, F234A L235A, V domains shown, deglycosylated with PNGase F; 3-azido propylamine at Gln295 by microbial transglutaminase, clicked with unchelated DOTA-GA-DBCO; CAR 2, Human IgG4; also called anti-PSMA mAb (MTG) mAb-DOTA) VH: EVQLLESGGGLVQPGGSLRLSCAASGFTFKSDAMHWVRQAPGKGLEWVSEISGSGGYTNYADSVKGRFTISRDNSKNTLYLQMNSLRAEDTAVYYCARDSYDSSLYVGDYFDYWGQGTLVTVSS VL: EIVLTQSPATLSLSPGERATLSCRASQSVSSYLAWYQQKPGQAPRLLIYDASNRATGIPARFSGSGSGTDFTLTISSLEPEDFAVYYCQQRSNWPLTFGQGTKVEIKR | 6.7 nM |  |
| anti-PSMA mAb-DOTA (random azide clicked with DOTA-GA-DBCO) (antibody, human IgG4 S228P, kappa, F234A L235A, V domains shown, random NHS-PEG4-azide on amines, clicked with unchelated DOTA-GA-DBCO, CAR 2.4, Human IgG4; also called anti-PSMA mAb (random azide) mAb-DOTA) VH: EVQLLESGGGLVQPGGSLRLSCAASGFTFKSDAMHWVRQAPGKGLEWVSEISGSGGYTNYADSVKGRFTISRDNSKNTLYLQMNSLRAEDTAVYYCARDSYDSSLYVGDYFDYWGQGTLVTVSS VL: EIVLTQSPATLSLSPGERATLSCRASQSVSSYLAWYQQKPGQAPRLLIYDASNRATGIPARFSGSGSGTDFTLTISSLEPEDFAVYYCQQRSNWPLTFGQGTKVEIKR | 5.4 nM |  |

Further binders by falling EC50 [4], results first:

| EC50 [4] | Binder | other results |
| --- | --- | --- |
| 4.7 nM | anti-PSMA mAb-azide (random azide) (antibody, human IgG4 S228P, kappa, F234A L235A, V domains shown, random conjugation of NHS-PEG4-azide to amines of the antibody, CAR 2.4, Human IgG4; sites of modification random, not located; also called anti-PSMA mAb (random azide) mAb-azide) VH: EVQLLESGGGLVQPGGSLRLSCAASGFTFKSDAMHWVRQAPGKGLEWVSEISGSGGYTNYADSVKGRFTISRDNSKNTLYLQMNSLRAEDTAVYYCARDSYDSSLYVGDYFDYWGQGTLVTVSS VL: EIVLTQSPATLSLSPGERATLSCRASQSVSSYLAWYQQKPGQAPRLLIYDASNRATGIPARFSGSGSGTDFTLTISSLEPEDFAVYYCQQRSNWPLTFGQGTKVEIKR |  |
| 4.6 nM | anti-PSMA mAb-DFO (random azide clicked with DFO-DBCO) (antibody, human IgG4 S228P, kappa, F234A L235A, V domains shown, random NHS-PEG4-azide on amines, clicked with unchelated DFO-DBCO, CAR 2.4, Human IgG4; also called anti-PSMA mAb (random azide) mAb-DFO) VH: EVQLLESGGGLVQPGGSLRLSCAASGFTFKSDAMHWVRQAPGKGLEWVSEISGSGGYTNYADSVKGRFTISRDNSKNTLYLQMNSLRAEDTAVYYCARDSYDSSLYVGDYFDYWGQGTLVTVSS VL: EIVLTQSPATLSLSPGERATLSCRASQSVSSYLAWYQQKPGQAPRLLIYDASNRATGIPARFSGSGSGTDFTLTISSLEPEDFAVYYCQQRSNWPLTFGQGTKVEIKR |  |
| 4.5 nM | anti-PSMA mAb-DFO (site specific MTG azide clicked with DFO-DBCO) (antibody, human IgG4 S228P, kappa, F234A L235A, V domains shown, deglycosylated with PNGase F; 3-azido propylamine at Gln295 by microbial transglutaminase, clicked with unchelated DFO-DBCO; CAR 2, Human IgG4; also called anti-PSMA mAb (MTG) mAb-DFO) VH: EVQLLESGGGLVQPGGSLRLSCAASGFTFKSDAMHWVRQAPGKGLEWVSEISGSGGYTNYADSVKGRFTISRDNSKNTLYLQMNSLRAEDTAVYYCARDSYDSSLYVGDYFDYWGQGTLVTVSS VL: EIVLTQSPATLSLSPGERATLSCRASQSVSSYLAWYQQKPGQAPRLLIYDASNRATGIPARFSGSGSGTDFTLTISSLEPEDFAVYYCQQRSNWPLTFGQGTKVEIKR |  |
| 3.4 nM | anti-PSMA mAb, deglycosylated (MTG samples) (antibody, human IgG4 S228P, kappa, F234A L235A, V domains shown, deglycosylated with Rapid PNGase F (all N-glycans released), Human IgG4; also called anti-PSMA mAb (MTG) Deglycosylated) VH: EVQLLESGGGLVQPGGSLRLSCAASGFTFKSDAMHWVRQAPGKGLEWVSEISGSGGYTNYADSVKGRFTISRDNSKNTLYLQMNSLRAEDTAVYYCARDSYDSSLYVGDYFDYWGQGTLVTVSS VL: EIVLTQSPATLSLSPGERATLSCRASQSVSSYLAWYQQKPGQAPRLLIYDASNRATGIPARFSGSGSGTDFTLTISSLEPEDFAVYYCQQRSNWPLTFGQGTKVEIKR |  |
| 0.7 nM | anti-PSMA mAb-DOTA (site specific glycan azide clicked with DOTA-GA-DBCO) (antibody, human IgG4 S228P, kappa, F234A L235A, V domains shown, Fc glycan trimmed to the innermost GlcNAc, GalNAz azido sugar added, clicked with unchelated DOTA-GA-DBCO; CAR 2, Human IgG4; also called anti-PSMA mAb (glycan) mAb-DOTA) VH: EVQLLESGGGLVQPGGSLRLSCAASGFTFKSDAMHWVRQAPGKGLEWVSEISGSGGYTNYADSVKGRFTISRDNSKNTLYLQMNSLRAEDTAVYYCARDSYDSSLYVGDYFDYWGQGTLVTVSS VL: EIVLTQSPATLSLSPGERATLSCRASQSVSSYLAWYQQKPGQAPRLLIYDASNRATGIPARFSGSGSGTDFTLTISSLEPEDFAVYYCQQRSNWPLTFGQGTKVEIKR |  |
| 0.5 nM | anti-PSMA mAb-azide (site specific glycan) (antibody, human IgG4 S228P, kappa, F234A L235A, V domains shown, Fc glycan trimmed with GlycINATOR to the innermost GlcNAc, GalNAz azido sugar added with GalT; CAR exactly 2, Human IgG4; also called anti-PSMA mAb (glycan) mAb-azide) VH: EVQLLESGGGLVQPGGSLRLSCAASGFTFKSDAMHWVRQAPGKGLEWVSEISGSGGYTNYADSVKGRFTISRDNSKNTLYLQMNSLRAEDTAVYYCARDSYDSSLYVGDYFDYWGQGTLVTVSS VL: EIVLTQSPATLSLSPGERATLSCRASQSVSSYLAWYQQKPGQAPRLLIYDASNRATGIPARFSGSGSGTDFTLTISSLEPEDFAVYYCQQRSNWPLTFGQGTKVEIKR |  |
